From PMC11626772

Molecular target: N-terminally truncated type IV pilin from P. aeruginosa strain P1 (ΔP1) (Pseudomonas aeruginosa strain P1)
Assay: SEC-MALS; 23 mg ml^-1 ΔP1 with trigger solution (10 mM Tris, 300 mM NaCl, 1 mM EDTA, 1 mM DTT, 1 M MPD pH 7.4) at 10:1 (v:v) protein:hydrophobe, 96 h at room temperature with nutation; then SEC-MALS as for the untreated sample; monomer to dimer

N-terminally truncated type IV pilin from P. aeruginosa strain P1 (ΔP1) (domain or fragment)
mass fraction of the dimer: 9.1%
stoichiometry N: 2
